Experimental data published in patent US20170029507A1 (IMAGINAB, published 2017).

Tests used:
[1] = target: T1, purified recombinant human CD8 protein (human, UniProt P01732 22-182, limits assumed); assay: ELISA, plate coated with rhCD8, transfection supernatant at 0.5 µg/ml and serially diluted, HRP goat anti-human IgG (Fc-specific), TMB, 405 nm
T1 construct: also called rhCD8; hCD8
Experimental: (§1) The concentration of the variants UAb_Mb1b_CD8, and IAb_Mb1a_CD8 were normalized to […] the concentration of IAb_MB2a_CD8 (0.5 μg/ml) based on the quantitative ELISA.
(§2) 96 well plates were coated with rhCD8 antigen and incubated with supernatants obtained from the transient transfection. Binding was detected with HRP-conjugated goat anti-human (Fc-specific) IgG and TMB substrate. The absorbance measured at 405 nm. Dilutions were done in triplicate. Data is shown as mean of relative absorbance.

[2] = target: T1, purified recombinant human CD8 protein; assay: ELISA, plate coated with rhCD8, transfection supernatant serially diluted from 0.5 µg/ml, HRP goat anti-human IgG (Fc-specific), TMB, 405 nm
Experimental: as §1, §2

T1 sequence (P01732 22-182 limits assumed): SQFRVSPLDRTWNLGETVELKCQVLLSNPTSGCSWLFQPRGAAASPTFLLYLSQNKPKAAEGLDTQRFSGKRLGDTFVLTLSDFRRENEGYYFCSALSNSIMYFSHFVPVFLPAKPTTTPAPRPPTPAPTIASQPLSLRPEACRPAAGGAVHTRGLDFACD

B1: IAb_Mb2a_CD8 (other)
chain: EVQLVESGGGLVQPGGSLRLSCAASGFNIKDTYIHFVRQAPGKGLEWIGRIDPANDNTLYASKFQGKATISADTSKNTAYLQMNSLRAGDTAVYYCGRGYGYYVFDHWGQGTLVTVSSGSTSGGGSGGGSGGGGSSDVQITQSPSSLSASVGDRVTITCRTSRSISQYLAWYQQKPGKVPKLLIYSGSTLQSGVPSRFSGSGSGTDFTLTISSLQPEDVATYYCQQHNENPLTFGGGTKVEIKEPKSCDKTHTCPPCGGGSSGGGSGGQPREPQVYTLPPSRDELTKNQVSLTCLVKGFYPSDIAVEWESNGQPENNYKTTPPVLDSDGSFFLYSKLTVDKSRWQQGNVFSCSVMHEALHNHYTQKSLSLSPGK
notes: Tested as CHO-K1 transfection supernatant; also called variant 2a
[1]
  EC50 (read off the curve): ~0.02 µg/mL

B2: IAb_Mb2c_CD8 (other)
chain: QVQLVQSGAEVKKPGATVKISCKVSGFNIKDTYIHFVQQAPGKGLEWIGRIDPANDNTLYASKFQGKATITADTSTDTAYMELSSLRSGDTAVYYCGRGYGYYVFDHWGQGTLVTVSSGSTSGGGSGGGSGGGGSSDVQITQSPSSLSASVGDRVTITCRTSRSISQYLAWYQQKPGKVPKLLIYSGSTLQSGVPSRFSGSGSGTDFTLTISSLQPEDVATYYCQQHNENPLTFGGGTKVEIKEPKSCDKTHTCPPCGGGSSGGGSGGQPREPQVYTLPPSRDELTKNQVSLTCLVKGFYPSDIAVEWESNGQPENNYKTTPPVLDSDGSFFLYSKLTVDKSRWQQGNVFSCSVMHEALHNHYTQKSLSLSPGK
notes: Tested as CHO-K1 transfection supernatant; also called variant 2c
[2]
  EC50 (read off the curve): ~0.04 µg/mL
